Measurements as given in patent publication US20050196403A1.
Blank lines part the entries; values can stand above or below the substance they belong to.

Key:
HLA-A*0201 (Human) [1] = assay: competition vs 125I probe, purified HLA
HLA-A*2401 (Human) [2] = biological target: HLA-A*2401 (Human)
HLA-A*0201 (Human) [3] = assay: competition vs 125I standard peptide, purified HLA
HLA-A*0206 (Human) = assay: competition vs 125I probe, purified HLA
HLA-A*0203 (Human) = assay: competition vs 125I probe, purified HLA
HLA-A*0202 (Human) = assay: competition vs 125I probe, purified HLA
HLA-A*2401 (human) [4] = assay: competition with 125I probe peptide, purified HLA class I

Substance: p53.69 AAPPVAPA (peptide)
IC50 (HLA-A*0201 (Human) [1]): 5000 nM

Substance: p53 peptide TYQGSYGF (position 102, 8 amino acids)
binding affinity ratio (IC50 of standard peptide/IC50 of test peptide) (HLA-A*2401 (Human) [2]): 0.11

Substance: ELNEALEL (peptide)
binding affinity ratio (ratio to standard peptide) (HLA-A*0201 (Human) [3]): -0.0002

Substance: PLDGEYFT (peptide)
binding affinity ratio (ratio to standard peptide) (HLA-A*0201 (Human) [3]): -0.0002

Substance: EALELKDA (peptide)
binding affinity ratio (ratio to standard peptide) (HLA-A*0201 (Human) [3]): -0.0002

Substance: p53 peptide … (position 117, 10 amino acids)
binding affinity ratio (IC50 of standard peptide/IC50 of test peptide) (HLA-A*2401 (Human) [2]): 0.0001

Substance: p53.135B1B7 BQLAKTBPV (peptide)
IC50 (HLA-A*0202 (Human)): 71 nM
IC50 (HLA-A*0206 (Human)): 67 nM
IC50 (HLA-A*0203 (Human)): 15 nM

Substance: TFSDLWKL (p53 position 18) (peptide)
binding affinity ratio (standard IC50 / test IC50) (HLA-A*2401 (human) [4]): 0.0016

The next lines start with the values.

binding affinity ratio (IC50 of standard peptide/IC50 of test peptide) (HLA-A*2401 (Human) [2]): -0.0004
Substance: p53 peptide RFEMFREL (position 337, 8 amino acids)

binding affinity ratio (IC50 of standard peptide/IC50 of test peptide) (HLA-A*0301 (Human)): 0.0046
Substance: p53 peptide HMTEVVRR (position 168)

binding affinity ratio (IC50 of standard peptide/IC50 of test peptide) (HLA-A*2401 (Human) [2]): 0.0016
Substance: p53 peptide TFSDLWKL (position 18, 8 amino acids)

binding affinity ratio (IC50 of standard peptide/IC50 of test peptide) (HLA-A*2401 (Human) [2]): 0.02
Substance: p53 peptide … (position 106, 9 amino acids)

binding affinity ratio (IC50 of standard peptide/IC50 of test peptide) (HLA-A*2401 (Human) [2]): 5.1
Substance: p53 peptide … (position 125, 10 amino acids)

IC50 (HLA-A*0206 (Human)): 49 nM
IC50 (HLA-A*0203 (Human)): 23 nM
Substance: p53.129B7V9 ALNKMFBQV (peptide)

binding affinity ratio (standard IC50 / test IC50) (HLA-A*2401 (human) [4]): -0.0004
Substance: RFEMFREL (p53 position 337) (peptide)

binding affinity ratio (IC50 of standard peptide/IC50 of test peptide) (HLA-A*2401 (Human) [2]): 0.12
Substance: p53 peptide … (position 102, 10 amino acids)

IC50 (HLA-A*0201 (Human) [1]): 46 nM
IC50 (HLA-A*0206 (Human)): 64 nM
IC50 (HLA-A*0203 (Human)): 7.7 nM
Substance: p53.135B1L2B7 BLLAKTBPV (peptide)

binding affinity ratio (IC50 of standard peptide/IC50 of test peptide) (HLA-A*2401 (Human) [2]): 0.028
Substance: p53 peptide SYGFRLGF (position 106, 8 amino acids)
